# Test results from patent US20160264674A1 (ADURO BIOTECH HOLDINGS EUROPE B V, published 2016).
# Where a chain is given by its changes, count along the chain named. Names may count otherwise.
# T1: FLAG-tagged human APRIL (human, UniProt O75888 105-250, limits assumed)
# T1 construct: also called FLAG-tagged APRIL; FLAG-APRIL; not shown: FLAG tag
# T1 sequence (looked up): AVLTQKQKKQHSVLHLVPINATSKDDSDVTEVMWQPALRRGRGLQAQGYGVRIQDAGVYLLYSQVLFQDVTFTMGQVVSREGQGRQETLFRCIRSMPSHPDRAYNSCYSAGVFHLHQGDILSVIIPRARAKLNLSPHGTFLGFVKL
# B1: VH14_1C.VL15 (antibody, human IgG4, V domains shown)
# VH: QVQLVQSGAEVKKPGASVKVSCKASGYTFTSYVMHWVRQAPGQGLEWMGYINPYNDAPKYNEKFKGRVTITSDTSASTAYMELSSLRSDDTAVYYCARGLGYALYYAMDYWGQGTTVTVSS
# VL: DIVMTQSPSTLSASVGDRVTITCKASQNVGNNVAWYQQKPGKAPKLLISSASNRDSGVPSRFSGSGSGTEFTLTISSLQPDDFATYFCQQYNIYPFTFGQGTKLEIK
# notes: VH14_1 with M70I; Rest is human IgG4 (S241P, Kabat) and human kappa; also called 14_1C.15
# B2: VH14_1G.VL15 (antibody, human IgG4 S228P, kappa, V domains shown)
# VH: B1 VH with R67K, V68A, I70M
# VL: DIVMTQSPSTLSASVGDRVTITCKASQNVGNNVAWYQQKPGKAPKLLISSASNRDSGVPSRFSGSGSGTEFTLTISSLQPDDFATYFCQQYNIYPFTFGQGTKLEIKR
# notes: VH14_1 with R67K and V68A; Humanized IgG4 (S241P, Kabat) with human kappa; also called 14_1G.15; 14_1 G.15
# B3: VH14_1D.VL15 (antibody, human IgG4, V domains shown)
# VH: B1 VH with I70M, T74K
# VL: B1 VL
# notes: VH14_1 with T74K; Rest is human IgG4 (S241P, Kabat) and human kappa; also called 14_1D.15
# B4: VH14_1E.VL15 (antibody, human IgG4, V domains shown)
# VH: B1 VH with Q1E, I70M
# VL: B1 VL
# notes: VH14_1 with Q1E; Rest is human IgG4 (S241P, Kabat) and human kappa; also called 14_1E.15
# B5: VH14.VL11 (combination of VH14 with VL11) (antibody, human IgG4, V domains shown)
# VH: B1 VH with I70M, S72R
# VL: DIVMTQSQKFMPTSVGDRVSVTCKASQNVGNNVAWYQQKPGQSPKALIYSASNRDSGVPDRFTGSGSGTDFTLTITNVQSEDLAEYFCQQYNIYPFTFGAGTKLELK
# notes: Human IgG4 (S241P) / human kappa; Member of the group 'combinations of VH11-VH14 with VL10-VL14'
# B6: VH12.VL11 (combination of VH12 with VL11) (antibody, human IgG4, V domains shown)
# VH: B1 VH with I70M, S72R, A76I, S85R
# VL: B5 VL
# notes: as for B5
# B7: VH13.VL11 (combination of VH13 with VL11) (antibody, human IgG4, V domains shown)
# VH: B1 VH with I70M, S72R, A76T, A79V, D89E, T116M
# VL: B5 VL
# notes: as for B5
# B8: VH14.VL14 (combination of VH14 with VL14) (antibody, human IgG4, V domains shown)
# VH: B1 VH with I70M, S72R
# VL: B5 VL with V3L, F10I, E105D
# notes: as for B5
# B9: VH13.VL14 (combination of VH13 with VL14) (antibody, human IgG4, V domains shown)
# VH: B1 VH with I70M, S72R, A76T, A79V, D89E, T116M
# VL: B5 VL with V3L, F10I, E105D
# notes: as for B5
# B10: VH11.VL14 (combination of VH11 with VL14) (antibody, human IgG4, V domains shown)
# VH: B1 VH with G44R, S72R, D89E
# VL: B5 VL with V3L, F10I, E105D
# notes: as for B5
# B11: VH12.VL14 (combination of VH12 with VL14) (antibody, human IgG4, V domains shown)
# VH: B1 VH with I70M, S72R, A76I, S85R
# VL: B5 VL with V3L, F10I, E105D
# notes: as for B5
# B12: VH11.VL11 (combination of VH11 with VL11) (antibody, human IgG4, V domains shown)
# VH: B1 VH with G44R, S72R, D89E
# VL: B5 VL
# notes: as for B5
# Molecular target: T1, FLAG-tagged human APRIL
# Experiment: FLAG-APRIL ELISA after 10 min at 65 °C, antibody at 1 µg/ml
# Procedure: (§1) The plasmids encoding the VH and VL constructs were mixed in a 1:3 ratio (4 μg in total) and transiently expressed by transfection into HEK293T human embryonic kidney cells (HEK293T/17, ATCC-CRL-11268), using Lipofectamine 2000 transfection reagent (Invitrogen) following the manufacturer's instructions. Cell supernatants were harvested after 5 days and tested for expression of antibody and binding to APRIL using an enzyme-linked immuno assay (ELISA). In these ELISAs, all incubation steps were followed by a wash step with PBST (PBS with 0.01% Tween 20). Maxisorb 96-wells plates (Nunc) were coated with 0.5 μg/ml anti-FLAG (Sigma) or anti-IgG4 (Jackson laboratories) and incubated overnight at 4° C. Subsequently the anti-FLAG coated 96-wells plates were incubated with FLAG-tagged human APRIL for 1 hour at room temperature. Next, supernatants and dilutions thereof were incubated for 1 hour, which was followed by an incubation of 1 hour with mouse anti-human IgG HRP-conjugate (Southern Biotechnology).
# (§2) To determine the effect of humanization on the stability of the antibodies, humanized antibodies were exposed to a range of temperatures for 10 minutes. Purified antibodies were diluted to 3.16 μg/ml and dilutions thereof in PBS. Next, these solutions were exposed to 65° C. or 70° C. and residual binding after heat treatment of the antibodies was measured using the FLAG-tagged APRIL ELISA assay as described before (see Table 6).
# (§3) In addition, the stability of the substituted humanized antibodies was improved as determined using thermostability studies as described in Example 3 (see Table 9).
row,% residual binding after heat treatment (room temperature = 100%) [%],Binder
1,44.7,B1
2,31.3,B2
3,39.8,B3
4,39.7,B4

# Molecular target: T1, FLAG-tagged human APRIL
# Experiment: ELISA: FLAG-tagged human APRIL captured on anti-FLAG plate, purified antibody titrated
row,EC50 [nM],Binder
1,7.04,B1
2,0.78,B2
3,1.95,B3
4,2.67,B4

# Molecular target: T1, FLAG-tagged human APRIL
# Experiment: FLAG-APRIL ELISA after 10 min at 70 °C, antibody at 3.16 µg/ml
row,% residual binding after heat treatment (room temperature = 100%) [%],Binder
1,99.4,B1
2,78.2,B2
3,84.3,B3
4,78.8,B4

# Molecular target: T1, FLAG-tagged human APRIL
# Experiment: competition ELISA: antibody premixed with FLAG-tagged APRIL, added to coated Fc-BCMA, anti-FLAG HRP
# Procedure: A subset of humanized antibodies described above was selected for further analyses. Again, plasmids encoding the VH and VL constructs were mixed in a 1:3 ratio (32 μg) and transiently expressed by transfection into (8*10⁶) HEK293T human embryonic kidney cells (HEK293T), using Lipofectamine 2000 transfection reagent (Invitrogen) according to the manufacturer's instructions. Supernatants were harvested (10 ml) and antibodies were purified using MabSelect Sure Protein A resin according to the manufacturer's instructions (GE Healthcare). Buffer was exchanged for PBS using Zeba desalting columns (Thermo Scientific). The concentration of purified antibodies was determined based on OD280 (Nanodrop ND-1000). The binding of the purified antibodies to APRIL was established using the above described APRIL ELISA. The blocking capability of the humanized antibodies with BCMA and TACI receptors, was tested in a competition ELISA. In these ELISAs, all incubation steps were followed by a wash step with PBST (PBS with 0.01% Tween 20). Maxisorb 96-wells plates (Nunc) were coated with 0.5 μg/ml Fc-BCMA (R&D Systems) or Fc-TACI (R&D Systems) and incubated overnight at 4° C. Next, humanized antibodies and dilutions thereof were incubated, premixed with FLAG-tagged APRIL, for 1 hour, which was followed by an incubation of 1 hour with anti-FLAG HRP-conjugate (Sigma). Immunoreactivity was visualized with 100 μl TMB Stabilized Chromagen (Invitrogen). Reactions were stopped with 100 μl 0.5 M H2504 and absorbances were measured at 450 and 620 nm. Calculated EC₅₀ and IC₅₀ representing the concentration at which 50% of the total binding signal or blocking is observed are represented in Table 5.
# The antibodies were tested for binding, blockade, and stability as described before.
row,IC50 [nM],Binder
1,5.26,B1
2,1.35,B2
3,0.96,B3
4,1.74,B4

# Molecular target: T1, FLAG-tagged human APRIL
# Experiment: FLAG-APRIL ELISA after 10 min at 70 °C, antibody at 0.316 µg/ml
row,% residual binding after heat treatment (room temperature = 100%) [%],Binder
1,59.1,B1
2,23.8,B2
3,45.6,B3
4,43.3,B4

# Molecular target: T1, FLAG-tagged human APRIL
# Experiment: FLAG-APRIL ELISA after 10 min at 70 °C, antibody at 1 µg/ml
row,% residual binding after heat treatment (room temperature = 100%) [%],Binder
1,43.8,B1
2,16.9,B2
3,32.7,B3
4,28,B4

# Molecular target: T1, FLAG-tagged human APRIL
# Experiment: FLAG-APRIL ELISA after 10 min at 65 °C, antibody at 0.316 µg/ml
# Procedure: as §1, §2, §3
row,% residual binding after heat treatment (room temperature = 100%) [%],Binder
1,59.1,B1
2,34.2,B2
3,49.4,B3
4,52,B4

# Molecular target: T1, FLAG-tagged human APRIL
# Experiment: ELISA on FLAG-tagged human APRIL captured by anti-FLAG
# Procedure: as §1
# Immunoreactivity was visualized with 100 μl TMB Stabilized Chromagen (Invitrogen). Reactions were stopped with 100 μl 0.5 M H2504 and absorbances were measured at 450 and 620 nm.
row,binding result,Binder
1,no binding,B5
2,no binding,B6
3,no binding,B7
4,no binding,B8
5,no binding,B9
6,no binding,B10
7,no binding,B11
8,no binding,B12

# Molecular target: T1, FLAG-tagged human APRIL
# Experiment: FLAG-APRIL ELISA after 10 min at 65 °C, antibody at 3.16 µg/ml
# Procedure: as §1, §2, §3
row,% residual binding after heat treatment (room temperature = 100%) [%],Binder
1,86.3,B1
2,94.5,B2
3,75.3,B3
4,82.3,B4
